Reference: patent US20230257435A1, “Wound Healing Composition and Uses Thereof” (AGENCY FOR SCIENCE, TECHNOLOGY AND RESEARCH, priority 2020, published 2023)
“Also recorded” adds a separate entry of the source.

Key:
[1] = test system: keratinocytes and dermal fibroblasts; test: In vitro scratch wound-healing assay; format: cell-based, human and mouse
Method: A confluent monolayer of control and Agrin depleted cells in a 6-well plate was subjected to a unidirectional scratch using a 20 μl pipette tip. This was followed by washing with 1×PBS at room temperature and incubation in complete culture media at 37° C. and 5% CO2 with or without sAgrin used as indicated. Phase contrast images of the wound area were taken periodically at the indicated time-points. For some wound-healing migration assays, keratinocytes were cultured on either soft or stiff substrates within a stencil barrier (Nalge Nunc., Inc) for 18 h. Upon removal of the barrier, the cells were allowed to migrate and imaged using an Axiovert 200 inverted microscope at indicated time-points.

keratinocytes = test: BrdU incorporation after wound scratch (leader/follower cells); format: cell-based; conditions: Agrin knockdown; 10 μg/ml sAgrin 18 h; 4 h post-scratch
Method: FIG. 6 Agrin impacts keratinocyte proliferation following wound injury. (a) Control, Agrin depleted indicated keratinocytes and those rescued with 10 μg/ml sAgrin for 18 h were labelled with 20 μM BrdU for 12 hours, before proceeding with wound-scratch assays. The cells were fixed at 4 hours post-scratching and stained with an Anti-BrdU and K17 antibodies. Nuclei were counterstained with DAPI. Representative confocal images at the wound edge (leader) and at-least 200 μm away from the wound margin (followers) are shown. The relative percentage of proliferating cells are shown for each condition graphically (n=5-6 images analyzed for each conditions from three replicates, Students ‘t’ test, **p=0.006, *p-0.003, p=0.005, ***p=0.0001, respectively). Scale bar: 10 μm. (b-c) Schematic showing the states of proliferation at the migrating wound margins. Immunohistological sections stained for Ki67 in control and Agrin depleted wound edges and beds at day 7 post-wounding. Filled arrows denote the base of epidermis (Ep), while arrows represent the wound margin. Asterisk (*) denotes the loss of Ki67 proliferation at the wound margins. Scale bar: 100 μm. The percentage of proliferating cells was quantified using Image J (n=4 sections analyzed from two individual mice, Students ‘t’ tests, **p=0.001).

[2] = test system: primary mouse keratinocytes over dermal fibroblasts; test: 3D-stiffness dependent keratinocyte fibroblast co-culture migration assay; format: cell-based; conditions: 10 μg/ml sAgrin
Source text: A 3D in-vitro wound healing model was created using collagen constructs of defined stiffness modifying a previously published protocol. Collagen constructs were made with Col-T-gel (0.8 KPa-soft) or (30 KPa-stiff) as per manufacturer's recommended protocol containing 300,000 primary mouse dermal fibroblasts (DFs). For some experiments, siControl and siAgrin treated DFs were incorporated within soft or stiff collagen constructs. The constructs bearing fibroblasts were allowed to solidify for 45 min inside incubator. A second layer of collagen matching the stiffness of the underneath layer was added containing 350,000 of primary mouse keratinocytes (KRTs) and the construct was allowed to solidify for 3-4 h. After removing excess media, the constructs were washed gently with 1×PBS twice. An upside down 2μ pipette tip was inserted and gently rotated at the center of the constructs to create a circular wound. The collagen and cells was quickly removed from the wound area and replaced with 40 μl of soft or stiff Col-T-gel matching the consistency and set-up of the constructs. The resultant wounded constructs were placed inside the incubator and imaged after 30 min for day 0 time-points. The migratory keratinocytes were imaged till day 5 post-wounding.

HaCaT cells = test: Traction force microscopy and PIV of collective migration; format: cell-based, human
Method: Substrate preparation—Two-part silicone elastomer, DOWSIL CY52-276 (Dow Inc.), is first mixed thoroughly in a 1:1 weight ratio. The mixture is then poured into a 35 mm glass-bottom culture dish (iwaki 3930-035, Asahi Techno Glass Corporation, Japan) placed on a level surface, to a thickness of ˜500 μm. After pre-curing overnight, the silicone coated culture dish is further baked for 2 hours at 80° C. to fully cure. To maximize subsequent microsphere attachment, the silicone film is pre-treated with (3-aminopropyl) triethoxysilane (A3648, Sigma-Aldrich). To silanize, a 1 ml solution containing 96% v/v, 2% v/v APTES and 1% v/v acetic acid (A6283, Sigma Aldrich) is added to the glass-bottom culture dish, covering the whole silicone film, and left for 10 minutes to react. The silicone film is then twice rinsed with 96% v/v ethanol and followed by a quick dip in Milli-Q water to remove all the solution: removing solution from the film this way is preferred over blow-drying with nitrogen gas because the latter may introduce dust to the surface which subsequently affects the uniformity of attached microsphere distribution. Following this, the culture-dish is baked at 80° C. for another 2 hours to promote siloxane bond formation. For the physisorption of fluorescent latex microspheres on to the silicone film, 6 μl of 100 nm orange fluorescent (540/560) carboxylate-modified microspheres (F8800, ThermoFisher Scientific) is first diluted in 10 ml of Milli-Q water and sonicated for 10 minutes. The diluted microspheres are then passed through a 0.22 μm filter directly into a 15 ml falcon tube containing 500 μl of 500 mM MES buffer, pH 6.0 (M3671, Sigma Aldrich). The microspheres are then sonicated again for 10 minutes before being added to cover the APTES silanized silicone film within the culture dish previously prepared. The solution was left for 5 minutes to allow the microspheres to attach. […] The stiffness of silicone substrates used for TFM were determined by atomic force microscopy as per previously established protocols as described in the section below. […]

[3] = Agrin depleted cells supplemented with sAgrin

B1: sAgrin: C-terminus recombinant Agrin fragment containing 8 amino acid 'Z8' insert and LG3 domain (SEQ ID NO: 7), His-tagged, expressed in E. coli (protein)
chain: DTLAFDGRTFVEYLNAVTESELANEIPVEKALQSNHFELSLRTEATQGLVLWSGKATERADYVALAIVDGHLQLSYNLGSQPVVLRSTVPVNTNRWLRVVAHREQREGSLQVGNEAPVTGSSPLGATQLDTDGALWLGGLPELPVGPALPKAYGTGFVGCLRDVVVGRHPLHLLEDAVTKPELRPCPTP
modifications: His tag
scratch wound-responsive migration velocities (rescue of Agrin knockdown) ([1]; Agrin knockdown fibroblasts and keratinocytes, 10 μg/ml sAgrin 18 h): in part, rescued | migration of MMP 1 and 10 knockdown keratinocytes ([1]; HaCaT, 10 μg/ml sAgrin 18 h): not restored by sAgrin treatment | migratory rates with increasing concentrations of sAgrin ([1]; HaCaT/mouse keratinocytes): accelerated migratory rates | migration of MMP12 depleted keratinocytes ([1]; human and mouse keratinocytes, 10 μg/ml sAgrin 18 h): failed to stimulate migration | K17 expressing leader keratinocyte migration in vitro ([1]; sAgrin 10 μg/ml, 4 h): enhanced the K17 expressing leader keratinocyte migration | proliferation of follower cells away from the wound margin (keratinocytes): rescued | keratinocyte migration in soft matrix ([2]; 0.8 KPa, day 5): strongly enhanced keratinocyte migration; also recorded: stimulated mouse keratinocyte migration over dermal fibroblasts | keratinocyte migration in stiff matrix, Agrin depleted KRTs and DFs ([2]; 30 KPa): strongly restored keratinocyte migration | keratinocyte migration, MMP12 depleted KRTs and DFs ([2]; soft matrix 0.8 KPa): not even rescued by sAgrin supplemented compliant matrices | traction force at migrating leading edge of MMP12 depleted keratinocytes (HaCaT cells; 10 μg/ml sAgrin 18-24 h): failed to induce sufficient traction force | collective traction stress at the leading front (HaCaT cells; [3]): significantly enhanced | coordinated velocity fields and fluidic collective migration (PIV) (HaCaT cells; [3]): significantly enhanced
